Measurements: patent US12514920B1, “Respiratory syncytial virus mRNA vaccine, and preparation method therefor and use thereof” (Hangzhou Tianlong Pharmaceutical Co., Ltd., priority 2024, dated 2026)

Experiments:
RSV F antibody (4B9) = assay: ELISA binding of RSV F antigen mutants, epitope III; conditions: for Binding amount to antibody/binding amount of PC-RSV-064 to antibody, Epitope III: antibody 4B9, relative to PC-RSV-064
Method: (§1) To investigate the binding of the RSV F antigen mutants to antibodies recognizing different epitopes, the binding amount was determined by an ELISA method in this example.
(§2) • 293T cells (purchased from ATCC cell bank); • Primary antibody: RSV pre-F antibody (3C12), epitope ([…] (Novoprotein, Cat. No.: DA101); • RSV pre-F antibody (7H11), epitope Quaternary (Novoprotein, Cat. No.: DA109); • RSV F antibody (11A9), epitope II (Novoprotein, Cat. No.: DA091); • RSV F antibody (4B9), epitope III (Novoprotein, Cat. No.: DA110); • RSV pre-F antibody (7E11), epitope V (Cat. No.: DA119); • Standard: RSV-pre-F trimer protein (Novoprotein, Cat. No.: DRA230); • Secondary antibody: peroxidase AffiniPure goat anti-human IgG (H+L) (Yeasen, Cat. No.: N/A); • Experimental group: mRNA vaccines after screening in Example 5;
(§3) Cell culture and transfection, and protein sample preparation: the experimental procedures were the same as in Example 3.
(§4) Detection of antigen expression by ELISA: the experimental procedures were the same as in Example 5.
(§5) In the present application, the binding of different mutant antigens to antibodies recognizing different epitopes was detected by ELISA, and the strength of the binding of the antigens to the antibodies was measured by the binding amount. (1) The RSV pre-F antibody (3C12) recognizing the epitope Φ binds only to the F protein in the pre-fusion conformation; (2) the RSV pre-F antibody (7H11) recognizes the epitope Quaternary (spanning both epitopes IV and V) and specifically binds to the F protein in the pre-fusion conformation; (3) the RSV F antibody (11A9) recognizing the epitope II can recognize both the pre-fusion and post-fusion conformations of the F protein; (4) the RSV F antibody […] recognizing the epitope III preferentially recognizes the pre-fusion conformation and has relatively weak binding activity for the post-fusion conformation; (5) the RSV pre-F antibody (7E11) recognizing the epitope V binds only to the F protein in the pre-fusion conformation.

[1] = system: RSV pre-F antibody (7H11); assay: ELISA binding of RSV F antigen mutants, epitope Quaternary; conditions: for Binding amount to antibody/binding amount of PC-RSV-064 to antibody, Epitope Quaternary: antibody 7H11, relative to PC-RSV-064
Method: as §1, §2, §3, §4, §5

RSV F antibody (11A9) = assay: ELISA binding of RSV F antigen mutants, epitope II; conditions: for Binding amount to antibody/binding amount of PC-RSV-064 to antibody, Epitope II: antibody 11A9, relative to PC-RSV-064
Method: as §1, §2, §3, §4, §5

[2] = system: RSV pre-F antibody (3C12); assay: ELISA binding of RSV F antigen mutants, epitope Φ; conditions: for Binding amount to antibody/binding amount of PC-RSV-064 to antibody, Epitope Φ: antibody 3C12, relative to PC-RSV-064; for binding of epitope Φ, epitope Quaternary and epitope V to the corresponding antibodies (in words): ELISA, antibodies 3C12, 7H11, 7E11
Method: as §1, §2, §3, §4, §5

[3] = system: RSV pre-F antibody (7E11); assay: ELISA binding of RSV F antigen mutants, epitope V; conditions: for Binding amount to antibody/binding amount of PC-RSV-064 to antibody, Epitope V: antibody 7E11, relative to PC-RSV-064
Method: as §1, §2, §3, §4, §5

[4] = system: RSV pre-F antibody (3C12); assay: Binding of epitope Φ of RSV F antigen mutants by flow cytometry; conditions: for RSV pre-F antibody (3C12) Epitope Φ (%) binding rate: flow cytometry; for Φ/II (%): ratio of epitope Φ (3C12) to epitope II (11A9) binding rate
Procedure, shortened: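 293T cells were transfected with mRNA-LNP (300 ng mRNA) encoding the RSV F mutants and harvested after 16 h. Cells were stained with fluorescent 3C12 (pre-F-specific epitope Φ) or 11A9 (epitope II, pre-F and post-F) for 2 h at 4 °C in the dark, then washed and read by flow cytometry on 1×10^4 cells per measurement.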

Row | Molecule | ELISA binding amount, Epitope III, RSV F antibody (4B9) (RSV F antibody (4B9)) [ng/mL] | Binding amount to antibody/binding amount of PC-RSV-064 to antibody, Epitope III (RSV F antibody (4B9)) | ELISA binding amount, Epitope Quaternary, RSV pre-F antibody (7H11) [1] [ng/mL] | Binding amount to antibody/binding amount of PC-RSV-064 to antibody, Epitope Quaternary [1] | ELISA binding amount, Epitope II, RSV F antibody (11A9) (RSV F antibody (11A9)) [ng/mL] | Binding amount to antibody/binding amount of PC-RSV-064 to antibody, Epitope II (RSV F antibody (11A9)) | ELISA binding amount, Epitope Φ, RSV pre-F antibody (3C12) [2] [ng/mL] | Binding amount to antibody/binding amount of PC-RSV-064 to antibody, Epitope Φ [2] | ELISA binding amount, Epitope V, RSV F antibody (7E11) [3] [ng/mL] | Binding amount to antibody/binding amount of PC-RSV-064 to antibody, Epitope V [3] | RSV pre-F antibody (3C12) Epitope Φ (%) binding rate [4] [%] | Φ/II (%) [4] [%] | binding of epitope Φ, epitope Quaternary and epitope V to the corresponding antibodies (in words) [2]
1 | YK-RSV-009 (protein) QNITEEFYCSTCSAVSKGYLGALRTGWYTSVILIELSNIKENKCNGTDAKVKLIKQELDKYKNAVTDLQLLMQSTPATGSGSAIASGVAVSKVLHLEGEVNKIKSALLSTNKAVVSLSNGVSVLTFKVLDLKNYIDKQLLPIVNKQSCSIPNIETVIEFQQKNNRLLEITREFSVNAGVTTPVSTYMLTNSELLSLINDMPITNDQKKLMSNNVQIVRQQSYSIMSIIKEEVLAYVVQLPLYGVIDTPCWKLHTSPLCTTNTKEGSNICLTRTDRGWYCDNAGSVSFFPQAETCKVQSNRVFCDTMNSRTLPSEVNLCNVDIFNPKYDCKIMTSKTDVSSSVITSLGAIVSCYGKTKCTASNKNRGIIKTFSNGCDYVSNKGVDTVSVGNTLYYVNKQEGQSLYVKCEPIINFYDPLVFPSSEFDASISQVNEKINQSLAFIRKSDELLHNVNAGKSTTNIMITTIIIVIIVILLSLIAVGLLLY | 358 | 0.12 | 29 | 0.01 | 203 | 0.10 | 521 | 0.19 | 43 | 0.13 | 87.4 | 93.9 | 
2 | YK-RSV-010 (protein) QNITEEFYQSTCSAVSKGYLGALRTGWYTCVILIELSNIKENKCNGTDAKVKLIKQELDKYKNAVTDLQLLMQSTPATGSGSAIASGVAVSKVLHLEGEVNKIKSALLSTNKAVVSLSNGVSVCTFKVLDLKNYIDKQLLPIVNKQSCSIPNIETVIEFQQKNNRLLEITREFSVNAGVTTPVSTYMLTNSELLSLINDMPITNDQKKLMSNNVQIVRQQSYSIMSIIKEEVLAYVVQLPLYGVIDTPCWKLHTSPLCTTNTKEGSNICLTRTDRGWYCDNAGSVSFFPQAETCKVQSNRVFCDTMNSRTLPSEVNLCNVDIFNPKYDCKIMTSKTDVSSSVITSLGAIVSCYGKTKCTASNKNRGIIKTFSNGCDYVSNKGVDTVSVGNTLYYVNKQEGQSLYVKGEPIINFYDPLVFPSSEFDASISQVNEKINQSLAFIRKSDELLHNVNAGKSTTNIMITTIIIVIIVILLSLIAVGLLLY | 534 | 0.19 | 39 | 0.01 | 336 | 0.16 | 838 | 0.30 | 139 | 0.43 |  | 97.3 | 
3 | YK-RSV-043 (protein) QNITEEFYQSTCSAVSKGYLGALRTGWYTSVITIELSNIKENKCNGTDAKVKLIKQELDKYKNAVTDLQLLMQSCPATGSGSAIACGVAVSKVLHLEGEVNKIKSALLSTNKAVVSLSNGVSVLTFKVLDLKNYIDKQLLPILNKQSCSIPNIETVIEFQQKNNRLLEITREFSVNAGVTTPVSTYMLTNSELLSLINDMPITNDQKKLMSNNVQIVRQQSYSIMSIIKEEVLAYVVQLPLYGVIDTPCWKLHTSPLCTTNTKEGSNICLTRTDRGWYCDNAGSVSFFPQAETCKVQSNRVFCDTMNSRTLPSEVNLCNVDIFNPKYDCKIMTSKTDVSSSVITSLGAIVSCYGKTKCTASNKNRGIIKTFSNGCDYVSNKGVDTVSVGNTLYYVNKQEGQSLYVKGEPIINFYDPLVFPSDEFDASISQVNEKINQSLAFIRKSDELLHNVNAGKSTTNIMITTIIIVIIVILLSLIAVGLLLY | 6529 | 2.28 | 922 | 0.26 | 4610 | 2.20 | 9445 | 3.41 | 223 | 0.69 |  | 95.3 | 
4 | YK-RSV-048 (protein) QNITEEFYQSTCSAVSKGYLGALRTGWYTSVITIELSNIKENKCNGTDAKVKLIKQELDKYKNAVTDLQLLMQSTPATGSGSFLGFLCGVGSAIASGVAVSKVLHLEGEVNKIKSALLSTNKAVVSLSNGVSVLTFKVLDLKNYIDKQLLPILNKQSCSIPNIETVIEFQQKNNRLLEITREFSVNAGVTTPVSTYMLTNSELLSLINDMPITNDQKKLMSNNVQIVRQQSYSIMSIIKEEVLAYVVQLPLYGVIDTPCWKLHTSPLCTTNTKEGSNICLTRTDRGWYCDNAGSVSFFPQAETCKVQSNRVFCDTMCSRTLPSEVNLCNVDIFNPKYDCKIMTSKTDVSSSVITSLGAIVSCYGKTKCTASNKNRGIIKTFSNGCDYVSNKGVDTVSVGNTLYYVNKQEGQSLYVKGEPIINFYDPLVFPSDEFDASISQVNEKINQSLAFIRKSDELLHNVNAGKSTTNIMITTIIIVIIVILLSLIAVGLLLY | 4655 | 1.62 | 2873 | 0.80 | 2255 | 1.07 | 3306 | 1.19 | 217 | 0.68 | 89.6 | 94.2 | able to well bind
5 | YK-RSV-050 (protein) QNITEEFYQSTCSAVSKGYLGALRTGWYTSVITIELSNIKENKCNGTDAKVKLIKQELDKYKNAVTDLQLLMQSTPATGSGSFLGFCLGVGSAIASGVAVSKVLHLEGEVNKIKSALLSTNKAVVSLSNGVSVLTFKVLDLKNYIDKQLLPILNKQSCSIPNIETVIEFQQKNNRLLEITREFSVNAGVTTPVSTYMLTNSELLSLINDMPITNDQKKLMSNNVQIVRQQSYSIMSIIKEEVLAYVVQLPLYGVIDTPCWKLHTSPLCTTNTKEGSNICLTRTDRGWYCDNAGSVSFFPQAETCKVQSNRVFCDTMCSRTLPSEVNLCNVDIFNPKYDCKIMTSKTDVSSSVITSLGAIVSCYGKTKCTASNKNRGIIKTFSNGCDYVSNKGVDTVSVGNTLYYVNKQEGQSLYVKGEPIINFYDPLVFPSDEFDASISQVNEKINQSLAFIRKSDELLHNVNAGKSTTNIMITTIIIVIIVILLSLIAVGLLLY | 3494 | 1.22 | 3722 | 1.03 | 2474 | 1.18 | 3068 | 1.11 | 923 | 2.88 | 86.5 | 93.0 | able to well bind
